{"source": "paper PMC8849274", "about": "(Oncotarget, 2022)", "assay_type_in_all_cases": "in vivo", "key": {"[1]": {"assay": "Biodistribution in mice bearing CaSki xenografts", "details": "female, athymic nude, mouse, iv, total radioactivity; for tissue uptake at 1 h: 1 h p.i.; for tissue uptake at 24 h: 24 h p.i.", "description": "(§1) Animals were supplied by Charles River Laboratories (Wilmington, MA, USA), and were handled in compliance with the Guidelines for Care and Use of Research Animals established by the Division of Comparative Medicine and the Animal Studies Committee of Washington University School of Medicine under protocol #20–0214. Female athymic nude mice were inoculated on the right flank with 10 × 10^6 CaSki or 5 × 10^6 BxPC-3 cells. Tumors were allowed to grow until they approached approximately 100 mm^3 in volume. Radiolabeled peptides were diluted in saline to a dose of 0.37 MBq (10 μCi) per 100 μl. […] For blocking experiments, non-PEGylated peptide (100 μg in 100 μL saline) was injected ten minutes before radiotracer. Blood, lung, liver, spleen, kidney, muscle, heart, bone, and tumor were harvested. The amount of radioactivity in each organ was determined by gamma counting, and the percent injected dose per gram of tissue (% ID/g) was calculated."}, "[2]": {"assay": "Biodistribution in mice bearing BxPC-3 xenografts", "details": "female, athymic nude, mouse, iv, total radioactivity, BxPC-3 tumor-bearing mice, 1 h p.i.", "description": "as §1"}, "[3]": {"assay": "Small animal PET/CT imaging, BxPC-3 tumors", "details": "female, mouse, tumor (BxPC-3 xenograft), iv, total radioactivity, athymic nude mice bearing BxPC-3 tumors, 3.7 MBq i.v., without blocking, n = 3, read-out: SUVmax of tumors", "procedure": "BxPC-3 cells (5 × 10^6) were inoculated in the right shoulder of female athymic nude mice 3–4 weeks before PET imaging sessions. All the experiments involving animals followed the Guidelines for Care and Use of Research Animals established by the Division of Comparative Medicine and the Animal Studies Committee of Washington University School of Medicine under protocol #20–0214. […] Mice were imaged with CT followed by static PET scans at 1, 4, and 24 h after tracer administration on an Inveon small animal PET/CT scanner (Siemens Medical Solutions, Malvern, PA, USA). Static images were collected for 20 min and reconstructed with the maximum a posteriori (MAP) reconstruction algorithm using the Inveon Reseach Workstation image display software (Siemens). Regions of interest (ROI) were selected based on co-registered anatomical CT images, and the associated radioactivity was measured using the Inveon software. The maximum standard uptake value (SUV) was calculated as the highest regional radioactivity concentration (nCi/cc) × animal weight (g)/decay-corrected amount of injected dose (nCi)."}}, "note": "Where two headings read alike, the source gives them in different places."}
{"smiles": "CC(C)C[C@H](NC(=O)[C@H](CC(=O)O)NC(=O)CNC(=O)[C@H](CCCNC(=N)N)NC(=O)[C@H](CC(C)C)NC(=O)[C@H](CC(N)=O)NC(=O)[C@@H]1CCCN1C(=O)[C@@H](NC(=O)[C@H](C)NC(=O)[C@H](CC(N)=O)NC(=O)CCOCCOCCOCCOCCOCCOCCOCCOCCOCCOCCOCCOCCOCCOCCOCCOCCOCCOCCOCCOCCOCCOCCOCCOCCOCCOCCOCCOCCNC(=O)CN1CCN(CC(=O)O)CCN(CC(=O)O)CCN(CC(=O)O)CC1)C(C)C)C(=O)N[C@@H](CCC(N)=O)C(=O)N[C@H](C(=O)N[C@@H](CC(C)C)C(=O)N[C@@H](C)C(=O)N[C@@H](CCC(N)=O)C(=O)N[C@@H](CCCCN)C(=O)N[C@H](C(=O)N[C@@H](C)C(=O)N[C@@H](CCCNC(=N)N)C(=O)N[C@H](C(=O)NCCOCCOCCOCCOCCOCCOCCOCCOCCOCCOCCOCCOCCOCCOCCOCCOCCOCCOCCOCCOCCOCCOCCOCCOCCOCCOCCOCCOCCC(N)=O)[C@@H](C)O)C(C)C)C(C)C", "note": "[[^64Cu]Cu-DOTA-(PEG28)2-A20FMDV2, metal not drawn]", "values": [{"measurement": "tissue uptake at 1 h", "setting": "[1]; blood, CaSki tumor-bearing mice, 0.37 MBq i.v., gamma counting, mean, n = 4, read-out: Uptake in Blood", "value": 0.22, "unit": "%ID/g"}, {"measurement": "tissue uptake at 24 h", "setting": "[1]; blood, CaSki tumor-bearing mice, 0.37 MBq i.v., read-out: Radioactivity remaining in the blood", "value": "0.26 ± 0.07", "unit": "%ID/g"}, {"measurement": "tissue uptake at 1 h", "setting": "[1]; blood, CaSki tumor-bearing mice, non-PEGylated A20FMDV2 100 μg injected 10 min before radiotracer, read-out: Uptake in Blood, 1 h Block", "value": 0.13, "unit": "%ID/g"}, {"measurement": "tissue uptake at 1 h", "setting": "[1]; bone, CaSki tumor-bearing mice, 0.37 MBq i.v., gamma counting, mean, n = 4, read-out: Uptake in Bone", "value": 0.62, "unit": "%ID/g"}, {"measurement": "tissue uptake at 1 h", "setting": "[1]; bone, CaSki tumor-bearing mice, non-PEGylated A20FMDV2 100 μg injected 10 min before radiotracer, read-out: Uptake in Bone, 1 h Block", "value": 0.27, "unit": "%ID/g"}, {"measurement": "tissue uptake at 1 h", "setting": "[1]; heart, CaSki tumor-bearing mice, 0.37 MBq i.v., gamma counting, mean, n = 4, read-out: Uptake in Heart", "value": 0.71, "unit": "%ID/g"}, {"measurement": "tissue uptake at 1 h", "setting": "[1]; heart, CaSki tumor-bearing mice, non-PEGylated A20FMDV2 100 μg injected 10 min before radiotracer, read-out: Uptake in Heart, 1 h Block", "value": 0.58, "unit": "%ID/g"}, {"measurement": "tissue uptake at 1 h", "setting": "[1]; kidney, CaSki tumor-bearing mice, 0.37 MBq i.v., gamma counting, mean, n = 4, read-out: Uptake in Kidney", "value": "42.7 ± 4.03", "unit": "%ID/g"}, {"measurement": "tissue uptake at 4 h", "setting": "[1]; kidney, CaSki tumor-bearing mice, 0.37 MBq i.v., 4 h p.i.", "value": "37 ± 10.6", "unit": "%ID/g"}, {"measurement": "tissue uptake at 24 h", "setting": "[1]; kidney, CaSki tumor-bearing mice, 0.37 MBq i.v., read-out: Uptake in Kidney", "value": "21 ± 4.67", "unit": "%ID/g"}, {"measurement": "tissue uptake at 1 h", "setting": "[1]; kidney, CaSki tumor-bearing mice, non-PEGylated A20FMDV2 100 μg injected 10 min before radiotracer, read-out: Uptake in Kidney, 1 h Block", "value": 35.5, "unit": "%ID/g"}, {"measurement": "tissue uptake at 1 h", "setting": "[1]; liver, CaSki tumor-bearing mice, 0.37 MBq i.v., gamma counting, mean, n = 4, read-out: Uptake in Liver", "value": 1.04, "unit": "%ID/g"}, {"measurement": "tissue uptake at 1 h", "setting": "[1]; liver, CaSki tumor-bearing mice, non-PEGylated A20FMDV2 100 μg injected 10 min before radiotracer, read-out: Uptake in Liver, 1 h Block", "value": 0.94, "unit": "%ID/g"}, {"measurement": "tissue uptake at 1 h", "setting": "[1]; lung, CaSki tumor-bearing mice, 0.37 MBq i.v., gamma counting, mean, n = 4, read-out: Uptake in Lung", "value": 1.37, "unit": "%ID/g"}, {"measurement": "tissue uptake at 1 h", "setting": "[1]; lung, CaSki tumor-bearing mice, non-PEGylated A20FMDV2 100 μg injected 10 min before radiotracer, read-out: Uptake in Lung, 1 h Block", "value": 1.19, "unit": "%ID/g"}, {"measurement": "tissue uptake at 1 h", "setting": "[1]; muscle, CaSki tumor-bearing mice, 0.37 MBq i.v., gamma counting, mean, n = 4, read-out: Uptake in Muscle", "value": 0.73, "unit": "%ID/g"}, {"measurement": "tissue uptake at 1 h", "setting": "[1]; muscle, CaSki tumor-bearing mice, non-PEGylated A20FMDV2 100 μg injected 10 min before radiotracer, read-out: Uptake in Muscle, 1 h Block", "value": 0.51, "unit": "%ID/g"}, {"measurement": "tissue uptake at 1 h", "setting": "[1]; spleen, CaSki tumor-bearing mice, 0.37 MBq i.v., gamma counting, mean, n = 4, read-out: Uptake in Spleen", "value": 0.17, "unit": "%ID/g"}, {"measurement": "tissue uptake at 1 h", "setting": "[1]; spleen, CaSki tumor-bearing mice, non-PEGylated A20FMDV2 100 μg injected 10 min before radiotracer, read-out: Uptake in Spleen, 1 h Block", "value": 0.13, "unit": "%ID/g"}, {"measurement": "tissue uptake at 1 h", "setting": "[1]; tumor (CaSki xenograft), 0.37 MBq i.v., gamma counting, mean, n = 4, read-out: Tumor Uptake", "value": "0.95 ± 0.29", "unit": "%ID/g"}, {"measurement": "tissue uptake at 1 h", "setting": "[1]; tumor (CaSki xenograft), non-PEGylated A20FMDV2 100 μg injected 10 min before radiotracer, read-out: Tumor uptake, 1 h Block", "value": "0.65 ± 0.17", "unit": "%ID/g"}, {"measurement": "tissue uptake at 1 h", "setting": "[2]; blood, 0.37 MBq i.v., gamma counting, mean, n = 4, read-out: Uptake in Blood", "value": 0.28, "unit": "%ID/g"}, {"measurement": "tissue uptake at 1 h", "setting": "[2]; blood, non-PEGylated A20FMDV2 100 μg injected 10 min before radiotracer, read-out: Uptake in Blood, 1 h Block", "value": 0.24, "unit": "%ID/g"}, {"measurement": "tissue uptake at 1 h", "setting": "[2]; bone, 0.37 MBq i.v., gamma counting, mean, n = 4, read-out: Uptake in Bone", "value": 0.25, "unit": "%ID/g"}, {"measurement": "tissue uptake at 1 h", "setting": "[2]; bone, non-PEGylated A20FMDV2 100 μg injected 10 min before radiotracer, read-out: Uptake in Bone, 1 h Block", "value": 0.28, "unit": "%ID/g"}, {"measurement": "tissue uptake at 1 h", "setting": "[2]; heart, 0.37 MBq i.v., gamma counting, mean, n = 4, read-out: Uptake in Heart", "value": 1.01, "unit": "%ID/g"}, {"measurement": "tissue uptake at 1 h", "setting": "[2]; heart, non-PEGylated A20FMDV2 100 μg injected 10 min before radiotracer, read-out: Uptake in Heart, 1 h Block", "value": 0.34, "unit": "%ID/g"}, {"measurement": "tissue uptake at 1 h", "setting": "[2]; 0.37 MBq i.v., gamma counting, mean, n = 4, read-out: Tumor Uptake", "value": "2.12 ± 0.83", "unit": "%ID/g"}, {"measurement": "tissue uptake at 1 h", "setting": "[2]; kidney, 0.37 MBq i.v., gamma counting, mean, n = 4, read-out: Uptake in Kidney", "value": 38, "unit": "%ID/g"}, {"measurement": "tissue uptake at 1 h", "setting": "[2]; kidney, non-PEGylated A20FMDV2 100 μg injected 10 min before radiotracer, read-out: Uptake in Kidney, 1 h Block", "value": 27.6, "unit": "%ID/g"}, {"measurement": "tissue uptake at 1 h", "setting": "[2]; liver, 0.37 MBq i.v., gamma counting, mean, n = 4, read-out: Uptake in Liver", "value": 2.79, "unit": "%ID/g"}, {"measurement": "tissue uptake at 1 h", "setting": "[2]; liver, non-PEGylated A20FMDV2 100 μg injected 10 min before radiotracer, read-out: Uptake in Liver, 1 h Block", "value": 2.59, "unit": "%ID/g"}, {"measurement": "tissue uptake at 1 h", "setting": "[2]; lung, 0.37 MBq i.v., gamma counting, mean, n = 4, read-out: Uptake in Lung", "value": 1.73, "unit": "%ID/g"}, {"measurement": "tissue uptake at 1 h", "setting": "[2]; lung, non-PEGylated A20FMDV2 100 μg injected 10 min before radiotracer, read-out: Uptake in Lung, 1 h Block", "value": 1.14, "unit": "%ID/g"}, {"measurement": "tissue uptake at 1 h", "setting": "[2]; muscle, 0.37 MBq i.v., gamma counting, mean, n = 4, read-out: Uptake in Muscle", "value": 0.62, "unit": "%ID/g"}, {"measurement": "tissue uptake at 1 h", "setting": "[2]; muscle, non-PEGylated A20FMDV2 100 μg injected 10 min before radiotracer, read-out: Uptake in Muscle, 1 h Block", "value": 0.18, "unit": "%ID/g"}, {"measurement": "tissue uptake at 1 h", "setting": "[2]; spleen, 0.37 MBq i.v., gamma counting, mean, n = 4, read-out: Uptake in Spleen", "value": 0.3, "unit": "%ID/g"}, {"measurement": "tissue uptake at 1 h", "setting": "[2]; spleen, non-PEGylated A20FMDV2 100 μg injected 10 min before radiotracer, read-out: Uptake in Spleen, 1 h Block", "value": 0.34, "unit": "%ID/g"}, {"measurement": "tissue uptake at 1 h", "setting": "[2]; tumor (BxPC-3 xenograft), non-PEGylated A20FMDV2 100 μg injected 10 min before radiotracer, read-out: Tumor uptake, 1 h Block", "value": "0.71 ± 0.16", "unit": "%ID/g"}, {"measurement": "SUV at 1 h", "setting": "[3]; PET at 1 h", "value": "0.44 ± 0.02", "unit": "SUV"}, {"measurement": "SUV at 4 h", "setting": "[3]; PET at 4 h", "value": "0.57 ± 0.15", "unit": "SUV"}, {"measurement": "SUV at 24 h", "setting": "[3]; PET at 24 h", "value": "0.69 ± 0.09", "unit": "SUV"}]}
